Laboratory results as given in patent publication US10401365B2, “Inhibition of chemokine CCL7 or receptor CCR3 of same for the treatment and diagnosis of prostate cancer” (Universite Paul Sabatier (Toulouse III), priority 2014, dated 2019).
Several values for one entry are separate records, joined by “and”; a condition that tells them apart may be missing. Equal entries are not always repeated.

Key:
[1] = system: TRAMP-C1P3 cells; assay: Migration of TRAMP-C1P3 cells against serum-free medium with recombinant CCL7; type: cell-based, mouse; conditions: 1-100 ng/ml
Method: (§1) In order to evaluate the ability of tumor cells to migrate according to the culture medium, Boyden chamber migration tests were conducted using 8 μm porosity Greiner bio-one inserts. In the lower compartment either culture medium with or without serum, or conditioned medium from F442A adipocytes (CM-Ad), human periprostatic adipose tissue (CM-PPAT), mouse perigonadal adipose tissue (CM-PGAT), adipocytes or vascular fraction cells (SVF) isolated from PPAT or PGAT is introduced. These conditioned media may be pretreated for 30 minutes by adding antibodies blocking the chemokine CCL7. Experiments with the recombinant chemokine CCL7 were also conducted, in this case the chemokine is added to serum-free culture medium to verify the chemoattractant potential thereof on a cell line. In the upper chamber 1×10^5 cells, previously depleted for 6 hours of serum are deposited in serum-free culture medium. […] The migration of the tumor cells is evaluated after 12 hrs of migration at 37° C. and 5% CO2 by 1% toluidine blue staining supplemented with 0.1M borax (Sigma, St Louis, Mo., USA) and quantification of the absorbance (measured at 570 nm).

[2] = system: Du-145 cells; assay: Migration of Du-145 cells against serum-free medium with recombinant CCL7; type: cell-based, human; conditions: dose-dependent, 1-100 ng/ml
Method: as §1

[3] = system: RM1-BM cells; assay: Migration of RM1-BM cells against serum-free medium with recombinant CCL7; type: cell-based, mouse; conditions: 100 ng/mL; p<0.01
Method: as §1

[4] = system: PC-3 cells; assay: Migration of PC-3 cells against serum-free medium with recombinant CCL7; type: cell-based, human; conditions: dose-dependent, 1-100 ng/ml
Method: as §1

[5] = system: PC-3 cells; assay: Boyden chamber migration of PC-3 cells against conditioned medium from mature adipocytes (CM-Ad, 3T3-F442A); type: cell-based, human
From the text: The monoclonal antibodies targeted against CCR1 (D063-3 clone 141-2) and CCR3 (D083-3, clone 444-11) are obtained from MBL International (Worburn, Mass., USA). The anti-CCR2 (clone E68) and anti-CCR3 (clone Y31) monoclonal antibodies are obtained from Abcam (Cambridge, Mass., USA). The monoclonal antibodies against CXCR2 (clone 48311), CXCR4 (clone 44716) and CCR1 (clone 53504) are obtained from R&D Systems (Minneapolis, Minn., USA).
The inhibitor targeting the receptor CXCR4, AMD3100 (Rosenkilde, Gerlach et al. 2004) is obtained from Sigman Aldrich and is used at final concentrations of 1, 10, 50 and 100 nM. The inhibitor targeting the receptors CXCR1 and CXCR2, SB225002 (White, Lee et al. 1998)) is obtained from Tocris (Bristol, United Kingdom) and is used at final concentrations of 1, 10 and 100 nm. […]
In order to evaluate the ability of tumor cells to migrate according to the culture medium, Boyden chamber migration tests were conducted using 8 μm porosity Greiner bio-one inserts. […] The migration of the tumor cells is evaluated after 12 hrs of migration at 37° C. and 5% CO2 by 1% toluidine blue staining supplemented with 0.1M borax (Sigma, St Louis, Mo., USA) and quantification of the absorbance (measured at 570 nm).

[6] = system: TRAMP-C1P3 cells; assay: Migration of shRNA-transfected TRAMP-C1P3 lines against CM-Ad or adipose tissue conditioned medium; type: cell-based, mouse
Method: In order to evaluate the ability of tumor cells to migrate according to the culture medium, Boyden chamber migration tests were conducted using 8 μm porosity Greiner bio-one inserts. In the lower compartment either culture medium with or without serum, or conditioned medium from F442A adipocytes (CM-Ad), human periprostatic adipose tissue (CM-PPAT), mouse perigonadal adipose tissue (CM-PGAT), adipocytes or vascular fraction cells (SVF) isolated from PPAT or PGAT is introduced. These conditioned media may be pretreated for 30 minutes by adding antibodies blocking the chemokine CCL7. Experiments with the recombinant chemokine CCL7 were also conducted, in this case the chemokine is added to serum-free culture medium to verify the chemoattractant potential thereof on a cell line. In the upper chamber 1×10^5 cells, previously depleted for 6 hours of serum are deposited in serum-free culture medium. For the migration tests in the presence of blocking antibodies specific for CCR1 or CCR3 or inhibitors of CCR1/CCR3, CCR2, CXCR1/CXCR2 and CXCR4, the tumor cells are previously incubated in a tube with the blocking antibody or the inhibitor for 30 min at 37° C. The migration of the tumor cells is evaluated after 12 hrs of migration at 37° C. and 5% CO2 by 1% toluidine blue staining supplemented with 0.1M borax (Sigma, St Louis, Mo., USA) and quantification of the absorbance (measured at 570 nm).
(§2) The nucleotides targeting the sequence of CCR3 are shown in upper case, whereas the sequence responsible for the hairpin structure and the sequences required for directional cloning are represented in lower case letter. The lentiviral vector LVTHM® is a lentiviral vector (LV) coding for the shRNA CCR3 sequences under the control of the H1 promoter also expressing GFP. The TRAMP-C1P3 cells were then transfected in the presence of m4, m5 or m6-LVTHM for 24 hours at a multiplicity of infection (MOI) of 1:10. The transfected population is selected by GFP expression (cell sorting). These cells were then analyzed by flow cytometry to validate the loss of expression of the CCR3 gene. The control used is the pLVTHM plasmid which expresses an ineffective shRNA sequence.

[7] = system: receptor CCR3; assay: Expression of receptor CCR3 in shRNA-transfected TRAMP-C1P3 cells; type: cell-based, mouse; conditions: stable shRNA, lentiviral
Method: The tumor cells (from prostate, breast, colon, pancreas, or melanoma) were washed three times in FACS buffer (PBS supplemented with 0.5% BSA and 2% FCS) and fixed with a 3.7% paraformaldehyde solution for 20 min at 4° C. The tumor cells were suspended with anti-CXCR4 (10 μg/ml), anti-CXCR1 (10 μg/ml), anti-CXCR2 (1:25), anti-CCR1 (10 μg/ml), anti-CCR2 (20 μg/ml), anti-CCR3 (10 μg/ml) antibodies or isotypical mouse anti-IgG control antibodies at 4° C. for 2 hours. The tumor cells were incubated with a mouse anti-IgG secondary antibody (dilution to 1:200) coupled with Alexa Fluor 488 or coupled with Cyanine 5 (for cells expressing GFP) for 30 minutes at 4° C. Finally, 2×10^4 cells were analyzed by flow cytometry using a FACScan and FACScalibur flow cytometer (analysis on CellQuest™ software (BD-PharMingen)).
In order to inhibit the expression of the receptor CCR3 (NM_009914) in a stable manner in TRAMP-C1P3 cells, an shRNA approach was used enabling stable negative regulation even after several months of culture. The interfering sequences were generated using the Dharmacon “Center siDesign” tool. The sequences of the sense strands of shRNA generated are as follows:
as §2

[8] = system: TRAMP-C1P3 cells; assay: Intraprostatic injection of TRAMP-C1P3 cells in C57BL/6 mice, tumor growth; type: in vivo; conditions: for tumor size: 2×10^6 cells intraprostatic, n=11, p<0.001 vs shCtrl
Method: Male C57BL/6 mice aged 18 weeks on a normal or high-fat diet were anesthetized with isoflurane. A transverse incision was made at the lower part of the abdomen. The muscles of the abdominal wall were incised, and the bladder and the seminal vesicles were released so as to expose the dorsal lobe of the prostate. A suspension of 2×10^6 cells (in 30 μl of PBS) was then carefully injected under the prostate capsule by means of a gauge 30 needle. The incision was closed using 4-0 suture and clips. The animals were then placed in cages and regular monitoring is conducted in order to monitor macroscopically the general condition of the mouse. After 20 days of tumor establishment, the mice are sacrificed, the primary tumor is thus removed, measured and weighed, and an acquisition in white light and GFP is carried out. The tumors are then placed in a paraformaldehyde solution (4%) and included in paraffin.

## recombinant chemokine CCL7: human recombinant chemokine CCL7, ligand of CCR3, added to serum-free medium as chemoattractant
[1]
  dose from which dose-dependent chemotaxis of TRAMP-C1P3 cells is induced: 50 ng/mL
[2]
  dose from which induced migration of Du-145 cells is significant compared to medium alone: 50 ng/mL
[3]
  induction of migration of RM1-BM cells with respect to serum-free medium: significant migration
[4]
  dose from which induced migration of PC-3 cells is significant compared to medium alone: 50 ng/mL

## O=C(Nc1ccc([N+](=O)[O-])cc1O)Nc1ccccc1Br [SB225002]
[5]; 50 nM, p<0.01
  inhibition of migration of PC-3 cells induced by CM-Ad: approximately 30%

## c1cc(CN2CCCNCCNCCCNCC2)ccc1CN1CCCNCCNCCCNCC1 [AMD3100]
[5]; 100 nM (maximum dose, only dose effective), p<0.05
  reduction of migration of PC-3 cells against CM-Ad: approximately 20%

B1: m4CCR3: shRNA targeting the gene CCR3, SEQ ID NO: 1 (nucleic acid)
chain: CGCGTCCCCAGACCACACCCTATGAATATTCAAGAGATATTCATAGGGTGTGGTCTTTTTTGGAAAT
[6]
  migration of shCCR3 TRAMP-C1P3 lines against CM-Ad with respect to control line: significant reduction
[7]
  expression of receptor CCR3 in TRAMP-C1P3 line with respect to control line (shCtrl): significant reduction

B2: m6CCR3: shRNA targeting the gene CCR3, SEQ ID NO: 3 (nucleic acid)
chain: CGCCGTCCCCGGTGAGAGGTTCCGGAAACTTCAAGAGAGTTTCCGGAACCTCTCACCTTTTTGGAAAT
[6]
  migration of shCCR3 TRAMP-C1P3 lines against CM-Ad with respect to control line: significant reduction
[6]; ND AT-mu-PG
  migration of shCCR3 TRAMP-C1P3 line against conditioned medium of ND AT-mu-PG with respect to control line: reduction in the migration is also detected
[6]; m6CCR3 line, unlike shCtrl line
  increase in migration in presence of HFD AT-mu-PG: not significant
[7]
  expression of receptor CCR3 in TRAMP-C1P3 line with respect to control line (shCtrl): significant reduction
[8]; histological sections
  invasion of the dorsal lobe of the prostate (histology, HE) compared with C1P3 Ctrl line: much less extensive invasion
[8]; mice on normal-fat diet
  tumor size: 220±30 mm3
[8]; obese mice on high-fat diet
  tumor size: 210±25 mm3 and 200±50 mm3

B3: m5CCR3: shRNA targeting the gene CCR3, SEQ ID NO: 2 (nucleic acid)
chain: CGCGTCCCCGACCACACCCTATGAATATTTCAAGAGAATATTCATAGGGTGTGGTCTTTTTGGAAAT
[6]
  migration of shCCR3 TRAMP-C1P3 lines against CM-Ad with respect to control line: significant reduction
[7]
  expression of receptor CCR3 in TRAMP-C1P3 line with respect to control line (shCtrl): significant reduction
